Test [1] deals with T1, IL-18 receptor (IL-18Rαβ) on cells (UniProt Q13478 19-541; O95256 20-599, limits assumed).
T1 sequence (looked up) 1: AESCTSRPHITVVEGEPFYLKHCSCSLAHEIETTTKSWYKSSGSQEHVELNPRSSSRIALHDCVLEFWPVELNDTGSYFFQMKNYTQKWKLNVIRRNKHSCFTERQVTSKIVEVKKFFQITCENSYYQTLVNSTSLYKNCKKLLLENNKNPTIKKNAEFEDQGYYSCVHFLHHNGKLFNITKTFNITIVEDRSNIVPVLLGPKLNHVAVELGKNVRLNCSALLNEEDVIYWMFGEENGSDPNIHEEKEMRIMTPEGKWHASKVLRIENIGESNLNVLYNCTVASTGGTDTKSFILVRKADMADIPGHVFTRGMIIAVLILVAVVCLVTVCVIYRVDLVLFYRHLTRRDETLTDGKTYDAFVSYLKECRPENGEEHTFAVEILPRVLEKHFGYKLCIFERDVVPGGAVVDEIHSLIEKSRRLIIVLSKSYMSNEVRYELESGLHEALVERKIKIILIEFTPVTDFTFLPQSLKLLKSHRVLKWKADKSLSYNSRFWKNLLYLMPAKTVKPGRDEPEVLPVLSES
T1 sequence (looked up) 2: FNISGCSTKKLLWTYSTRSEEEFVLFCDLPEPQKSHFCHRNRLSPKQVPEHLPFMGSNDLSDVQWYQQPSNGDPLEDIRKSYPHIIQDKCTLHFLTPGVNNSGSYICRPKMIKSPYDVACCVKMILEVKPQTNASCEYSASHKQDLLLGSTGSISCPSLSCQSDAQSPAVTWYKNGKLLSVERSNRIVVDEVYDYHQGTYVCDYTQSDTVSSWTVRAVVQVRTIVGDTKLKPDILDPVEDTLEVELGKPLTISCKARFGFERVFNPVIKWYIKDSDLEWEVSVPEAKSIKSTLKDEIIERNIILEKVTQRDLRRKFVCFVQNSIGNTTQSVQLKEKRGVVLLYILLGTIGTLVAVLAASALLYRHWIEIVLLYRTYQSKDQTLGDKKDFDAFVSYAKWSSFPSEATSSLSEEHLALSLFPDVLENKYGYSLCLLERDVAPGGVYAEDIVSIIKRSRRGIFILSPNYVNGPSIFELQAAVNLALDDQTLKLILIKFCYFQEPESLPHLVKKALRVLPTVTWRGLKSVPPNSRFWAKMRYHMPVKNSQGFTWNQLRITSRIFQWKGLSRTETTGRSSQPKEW
Put plainly: cell-based or functional assay.

Test [2] concerns the target T1, IL-18 receptor (IL-18Rαβ) on cells. The test can be described thus: cell-based or functional assay. This is another data set of the same source.

Values joined by “and” are separate entries in the source; they are usually repeats but may differ in a detail not shown here. Identical values can stand only once.

B1: SEQ ID NO 34 (ligand)
chain: YFGKLKSKLSVIRNLNDQVLFIDQGNRPLFEDMTDSDCRDNAPRTIFIISMYADAQPRGMAVTISVKCEKISTLSCENKIISFKEMNPPDNIKDTKSDIIFFQRSVPGHDNKMQFESSSYEGYFLACEKERDLFKLILKKEDELGDRSIMFTVQNED
As for B1, in test [1], the “HEK-Blue IL-18R reporter EC50” value turned out to be 0.273 nM. Moreover, in test [2], the “EC50 (IFNγ stimulation, NK92)” value was determined as 0.824 nM.

B2: SEQ ID NO 59 (ligand)
chain: YFGKLKSKLSVIRNLNDQVLFIDQGNRPLFEDMTDSDARDNAPRTIFIISMYADSQPRGMAVTISVKCEKISTLSCENKIISFKEMNPPDNIKDTKSDIIFFQRSVPGHDNKMQFESSSYEGYFLACEKERDLFKLILKKEDELGDRSIMFTVQNED
B2: in test [1], the “HEK-Blue IL-18R reporter EC50” value was 0.000268 nM. The “EC50 (IFNγ stimulation, NK92)” value in test [2] was found to be 0.015 nM.

B3: SEQ ID NO 6 (ligand)
chain: YFGKLKSKLSIIRNLNDQVLFIDQGNRPLFEDMTDSDARDNAPRTIFIISMYADSQPRGMAVAISVKAEKISTLSAENKIISFKEMNPPDNIKDTKSCIIFFQRSVPGHDNKMQFESSSYEGYFLAAEKERDLFKLILKKEDELGDRSIMFTVQNED
With B3, in test [2], the “EC50 (IFNγ stimulation, NK92)” value is 1.37 nM.

B4: SEQ ID NO 4 (ligand)
chain: YFGKLKSKLSVIRNLNDQVLFIDQGNRPLFEDMTDSDARDNAPRTIFIISMYADSQPRGMAVTISVKAEKISTLSCENKIISFKECNPPDNIKDTKSDIIFFQRSVPGHDNKMQFESSSYEGYFLACEKERDLFKLILKKEDELGDRSIMFTVQNED
Consider B4, for which the “EC50 (IFNγ stimulation, NK92)” value in test [2] is 0.022 nM.

B5: SEQ ID NO 54 (ligand)
chain: YFGKLKSKLSVIRNLNDQVLFIDQGNRPLFEDMTDSDSRDNAPRTIFIISMYADSQPRGMAVTISVKSECISTLSSENKIISFKEMNPPDNIKDTKSDIIFFQRSVPGHDNKMQFESSSYEGYFLASEKERDLFKLILKKEDELGDRSIMFTVQNED
Regarding B5, the “HEK-Blue IL-18R reporter EC50” value in test [1] was found to be 0.00912 nM. In addition, in test [2], the “EC50 (IFNγ stimulation, NK92)” value is 0.962 nM.

B6: C144 (ligand)
chain: YFGKLESKLSIIRNLNDQVLFIDQGNRPLFEDMTDSDARDNAPRTIFIISMYADSQPRGMAVAISVKCEKISTLSAENKIISFKEMNPPDNIKDTKSDIIFFQRSVPGHDNKMQFESSSYEGYFLAAEKERDLFKLILKKEDELGDRSIMFTVQNED
Consider B6, for which the “HEK-Blue IL-18R reporter EC50” value in test [1] came out at 0.00017 nM. Besides, the “EC50 (IFNγ stimulation, NK92)” value in test [2] was determined as 0.012 nM.

B7: SEQ ID NO 62 (ligand)
chain: YFGKLKSKLSVIRNLNDQVLFIDQGNRPLFEDMTDSDARDNAPRTIFIISMYADSQPRGMAVTISVKCEKISTLSCENKIISFKEMNPPDNIKDTKSDIIFFQRSVPGHDNKMQFESSSYEGYFLAAEKERDLFKLILKKEDELGDRSIMFTVQNED
In the case of B7, in test [1], the “HEK-Blue IL-18R reporter EC50” value was 0.00017 nM. The “EC50 (IFNγ stimulation, NK92)” value in test [2] is 0.026 nM.

B8: SEQ ID NO 5 (ligand)
chain: YFGKLKSKLSIIRNLNDQVLFIDQGNRPLFEDMTDSDARDNAPRTIFIISMYADSQPRGMAVAISVKAEKISTLSAENKIISFKECNPPDNIKDTKSDIIFFQRSVPGHDNKMQFESSSYEGYFLAAEKERDLFKLILKKEDELGDRSIMFTVQNED
On to B8, for which the “EC50 (IFNγ stimulation, NK92)” value in test [2] is 0.075 nM.

B9: SEQ ID NO 60 (ligand)
chain: YFGKLKSKLSVIRNLNDQVLFIDQGNRPLFEDMTDSDQRDNAPRTIFIISMYADSQPRGMAVTISVKCEKISTLSCENKIISFKEMNPPDNIKDTKSDIIFFQRSVPGHDNKMQFESSSYEGYFLACEKERDLFKLILKKEDELGDRSIMFTVQNED
With B9, in test [1], the “HEK-Blue IL-18R reporter EC50” value is 0.000203 nM. The “EC50 (IFNγ stimulation, NK92)” value in test [2] was 0.006 nM.

B10: C147 (ligand)
chain: YFGKLESKLSIIRNLNDQVLFIDQGNRPLFEDMTDSDARDNAPRTIFIISMYAASQPRGMAVTISVKCEKISTLSAENKIISFKEMNPPDNIKDTKSDIIFFQRSVPGHDNKMQFESSSYEGYFLAAEKERDLFKLILKKEDELGDRSIMFTVQNED
For B10, the “HEK-Blue IL-18R reporter EC50” value in test [1] amounted to 0.001 nM. The “EC50 (IFNγ stimulation, NK92)” value in test [2] was found to be 0.079 nM.

B11: C145 (ligand)
chain: YFGKLESKLSIIRNLNDQVLFIDQGNRPLFEDMTDSDARDNAPRTIFIISMYADAQPRGMAVTISVKCEKISTLSAENKIISFKEMNPPDNIKDTKSDIIFFQRSVPGHDNKMQFESSSYEGYFLAAEKERDLFKLILKKEDELGDRSIMFTVQNED
As for B11, the “HEK-Blue IL-18R reporter EC50” value in test [1] worked out at 0.00363 nM. In addition, in test [2], the “EC50 (IFNγ stimulation, NK92)” value is 0.087 nM.

B12: C146 (ligand)
chain: YFGKLESKLSIIRNLNDQVLFIDQGNRPLFEDMTDSDARDNAPRTIFIISGYADSQPRGMAVTISVKCEKISTLSAENKIISFKEMNPPDNIKDTKSDIIFFQRSVPGHDNKMQFESSSYEGYFLAAEKERDLFKLILKKEDELGDRSIMFTVQNED
For B12, the “HEK-Blue IL-18R reporter EC50” value in test [1] came out at 0.0008 nM. Further, the “EC50 (IFNγ stimulation, NK92)” value in test [2] was found to be 0.037 nM.

B13: SEQ ID NO 57 (ligand)
chain: YFGKLKSKLSVIRNLNDQVLFIDQGNRPLFEDMTDSDSRDNAPRTIFIISMYADSQPRGMAVTISVKCEKISTLSCENKIISFKEMNPPDNIKDTKSDIIFFQRSVPGHDNKMQFESSSYEGYFLACEKERDLFKLILKKEDELGDRSIMFTVQNED
Regarding B13, the “HEK-Blue IL-18R reporter EC50” value in test [1] was 0.00086 nM and 0.00053 nM. For the same molecule, the “EC50 (IFNγ stimulation, NK92)” value in test [2] was 0.045 nM.

B14: SEQ ID NO 50 (ligand)
chain: YFGKLKSKLSVIRNLNDQVLFIDQGNRPLFEDMTDSDCRDNAPRTIFIISMYADSQPRGMAVAISVKCEKISTLSCENKIISFKEMNPPDNIKDTKSDIIFFQRSVPGHDNKMQFESSSYEGYFLACEKERDLFKLILKKEDELGDRSIMFTVQNED
Turning to B14, in test [1], the “HEK-Blue IL-18R reporter EC50” value came out at 0.00177 nM. Besides, the “EC50 (IFNγ stimulation, NK92)” value in test [2] stood at 0.0268 nM.

B15: SEQ ID NO 9 (ligand)
chain: YFGKLKSKLSVIRNLNDQVLFIDQGNRPLFEDMTDSDARDNAPRTIFIISMYADSQPRGMAVTISVKAEKISTLSCENKIISFKEMNPPDNIKDTKSCIIFFQRSVPGHDNKMQFESSSYEGYFLACEKERDLFKLILKKEDELGDRSIMFTVQNED
With B15, in test [2], the “EC50 (IFNγ stimulation, NK92)” value is 0.069 nM.

B16: SEQ ID NO 42 (ligand)
chain: YFGKLKSKLSVIRNLNDQVLFIDQGNRPLFEDMTDSDCRDNAPRTIFIISMYADAQPRGMAVAISVKCEKISTLSCENKIISFKEMNPPDNIKDTKSDIIFFQRSVPGHDNKMQFESSSYEGYFLACEKERDLFKLILKKEDELGDRSIMFTVQNED
For B16, the “HEK-Blue IL-18R reporter EC50” value in test [1] came to 0.00079 nM. In test [2], the “EC50 (IFNγ stimulation, NK92)” value came to 0.144 nM.

B17: C143 (ligand)
chain: YFGKLESKLSIIRNLNDQVLFIDQGNRPLFEDMTDSDARDNAPRTIFIISMYADSQPRGMAVTISVKCEKISTLSAENKIISFKEMNPPDNIKDTKSDIIFFQRSVPGHDNKMQFESSSYEGYFLAAEKERDLFKLILKKEDELGDRSIMFTVQNED
For the molecule B17, in test [1], the “HEK-Blue IL-18R reporter EC50” value stood at 0.00098 nM. For the same molecule, the “EC50 (IFNγ stimulation, NK92)” value in test [2] stood at 0.138 nM.

B18: SEQ ID NO 55 (ligand)
chain: YFGKLESKLSVIRNLNDQVLFIDQGNRPLFEDMTDSDSRDNAPRTIFIISMYADSQPRGMAVAISVKSECISTLSSENKIISFKEMNPPDNIKDTKSDIIFFQRSVPGHDNKMQFESSSYEGYFLASEKERDLFKLILKKEDELGDRSIMFTVQNED
Consider B18, for which the “EC50 (IFNγ stimulation, NK92)” value in test [2] is 17.2 nM.

The values above are taken from patent US20250197467A1 (BRIGHT PEAK THERAPEUTICS, published 2025).
